In US20230201439A1 one finds cfDNA quantity in perfusate after incubation with the matrix (Nu.Q H3 Assay) data, which are given here for one substance.

Test [1] deals with Nucleosomes (cfDNA measured by Nu.Q H3.1 assay) in porcine liver perfusion solution (porcine). Briefly: batch depletion: porcine liver perfusate with 10% v/v antibody-agarose matrix, 60 min, 37 C; what is left is measured by Nu.Q H3.1 assay; sample 2, before incubation 73536 ng/ml.
Test [2] shares this target. Briefly: batch depletion: porcine liver perfusate with 10% v/v antibody-agarose matrix, 60 min, 37 C; what is left is measured by Nu.Q H3.1 assay; sample 1, before incubation 92466 ng/ml.
Test [3] has the same target. Briefly: batch depletion: porcine liver perfusate with 10% v/v antibody-agarose matrix, 60 min, 37 C; what is left is measured by Nu.Q H3.1 assay; sample 3, before incubation 87643 ng/ml.

As for “Antibody against histone H3.1 (Merck Millipore MABE952), coupled to NHS-activated Sepharose 4 Fast Flow”, the results for the cfDNA quantity in perfusate after incubation with the matrix (Nu.Q H3 Assay) in test [1], in test [2] and in test [3] were 24300 ng/mL, 38800 ng/mL and 29800 ng/mL, respectively.
